Columns and labels:
[1] = biological target: T1, f-5A chimera (catalytic module of T. fusca family-5 endoglucanase Cel5A fused to a dockerin from Ruminococcus …); experiment: non-denaturing PAGE mobility shift, equimolar mixture
T1 construct: Recombinant chimera expressed in E. coli; all enzyme constructs were designed to contain a His-tag; also called variant Cel5A
T1 chain: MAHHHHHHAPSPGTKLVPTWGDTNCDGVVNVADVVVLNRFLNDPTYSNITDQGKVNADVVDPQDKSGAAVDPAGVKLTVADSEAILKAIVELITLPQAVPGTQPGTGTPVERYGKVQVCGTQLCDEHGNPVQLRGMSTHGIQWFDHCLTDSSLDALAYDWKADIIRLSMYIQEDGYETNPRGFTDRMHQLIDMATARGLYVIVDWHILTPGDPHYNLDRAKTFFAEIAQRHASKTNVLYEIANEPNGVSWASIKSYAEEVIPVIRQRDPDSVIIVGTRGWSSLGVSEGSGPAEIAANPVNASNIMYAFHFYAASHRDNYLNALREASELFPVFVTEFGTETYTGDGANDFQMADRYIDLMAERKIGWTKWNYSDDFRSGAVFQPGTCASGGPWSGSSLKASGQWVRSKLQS

[2] = biological target: T2, 11A-a chimera (catalytic module of T. fusca Xyn11A attached directly to dockerin B from Acetivibrio …); experiment: affinity-based ELISA; complex formation also by non-denaturing PAGE
T2 construct: Recombinant chimera expressed in E. coli, purified on a Ni column (His-tag)

[3] = biological target: T3, 11A-XBM-a chimera (catalytic module of T. fusca Xyn11A together with its adjacent XBM attached to dockerin B …); experiment: as above
T3 construct: Recombinant chimera expressed in E. coli, purified on a Ni column (His-tag); also called variant Xyn11A

Measured: binding result

B1: Scaf-AF chimeric scaffoldin (cohesin 3 from A. cellulolyticus scaffoldin C, CBM3a from C. thermocellum, cohesin 1 from R. flavefaciens scaffoldin B) (other)
chain: MDLQVDIGSTSGKAGSVVSVPITFTNVPKSGIYALSFRTNFDPQKVTVASIDAGSLIENASDFTTYYNNENGFASMTFEAPVDRARIIDSDGVFATINFKVSDSAKVGELYNITTNSAYTSFYYSGTDEIKNVVYNDGKIEVIASVPTNTPTNTPANTPVSGNLKVEFYNSNPSDTTNSINPQFKVTNTGSSAIDLSKLTLRYYYTVDGQKDQTFWCDHAAIIGSNGSYNGITSNVKGTFVKMSSSTNNADTYLEISFTGGTLEPGAHVQIQGRFAKNDWSNYTQSNDYSFKSASQFVEWDQVTAYLNGVLVWGKEPGGSVVPSTQPVTTPPATTKPPATTIPPSEDPAGGLSAVQPNVSLGEVLDVSANRTAADGTVEWLIPTVTAAPGQTVTMPVVVKSSSLAVAGAQFKIQAATGVSYSSKTDGDAYGSGIVYNNSKYAFGQGAGRGIVAADDSVVLTLAYTVPADCAEGTYDVKWSDAFVSDTDGQNITSKVTLTDGAIIVHHHHHH
binds: [1] | [2] | [3]

Reference: patent publication US20120301930A1 (YEDA RESEARCH AND DEVELOPMENT, published 2012)
